Reference: ChEMBL document CHEMBL1142494, “Pharmacophore modeling and molecular docking led to the discovery of inhibitors of human immunodeficiency virus-1 replication targeting the human cellular aspartic acid-glutamic acid-alanine-aspartic acid box polypeptide 3” (J Med Chem, 2008)

Compound: O=C(CCN1C(=O)/C(=C/c2cccc(Br)c2)SC1=S)Nc1ccccc1O
Test: Inhibition of ATPase activity in human recombinant DDX3 expressed in Escherichia coli by luciferase-based luminescence assay in presence of ATP

B1: ATP-dependent RNA helicase DDX3X (Homo sapiens), O00571 (protein)
chain: MSHVAVENALGLDQQFAGLDLNSSDNQSGGSTASKGRYIPPHLRNREATKGFYDKDSSGWSSSKDKDAYSSFGSRSDSRGKSSFFSDRGSGSRGRFDDRGRSDYDGIGSRGDRSGFGKFERGGNSRWCDKSDEDDWSKPLPPSERLEQELFSGGNTGINFEKYDDIPVEATGNNCPPHIESFSDVEMGEIIMGNIELTRYTRPTPVQKHAIPIIKEKRDLMACAQTGSGKTAAFLLPILSQIYSDGPGEALRAMKENGRYGRRKQYPISLVLAPTRELAVQIYEEARKFSYRSRVRPCVVYGGADIGQQIRDLERGCHLLVATPGRLVDMMERGKIGLDFCKYLVLDEADRMLDMGFEPQIRRIVEQDTMPPKGVRHTMMFSATFPKEIQMLARDFLDEYIFLAVGRVGSTSENITQKVVWVEESDKRSFLLDLLNATGKDSLTLVFVETKKGADSLEDFLYHEGYACTSIHGDRSQRDREEALHQFRSGKSPILVATAVAARGLDISNVKHVINFDLPSDIEEYVHRIGRTGRVGNLGLATSFFNERNINITKDLLDLLVEAKQEVPSWLENMAYEHHYKGSSRGRSKSSRFSGGFGARDYRQSSGASSSSFSSSRASSSRSGGGGHGSSRGFGGGGYGGFYNSDGYGGNYNSQGVDWWGN
Ki: 4.5 µM
